Columns and labels:
[1] = molecular target: GLP-1 receptor (UniProt P43220)
[2] = molecular target: extracellular domain of the human β-klotho protein (human) (UniProt Q86Z14)
[3] = molecular target: extracellular domain of the human β-klotho protein (human) (UniProt Q86Z14); experiment: BLI
[4] = molecular target: GLP-1 receptor (UniProt P43220); remark: listed apart in the source
[5] = molecular target: extracellular domain of the human β-klotho protein (human) (UniProt Q86Z14); remark: listed apart in the source

Chain of GLP-1 receptor (P43220 24-463): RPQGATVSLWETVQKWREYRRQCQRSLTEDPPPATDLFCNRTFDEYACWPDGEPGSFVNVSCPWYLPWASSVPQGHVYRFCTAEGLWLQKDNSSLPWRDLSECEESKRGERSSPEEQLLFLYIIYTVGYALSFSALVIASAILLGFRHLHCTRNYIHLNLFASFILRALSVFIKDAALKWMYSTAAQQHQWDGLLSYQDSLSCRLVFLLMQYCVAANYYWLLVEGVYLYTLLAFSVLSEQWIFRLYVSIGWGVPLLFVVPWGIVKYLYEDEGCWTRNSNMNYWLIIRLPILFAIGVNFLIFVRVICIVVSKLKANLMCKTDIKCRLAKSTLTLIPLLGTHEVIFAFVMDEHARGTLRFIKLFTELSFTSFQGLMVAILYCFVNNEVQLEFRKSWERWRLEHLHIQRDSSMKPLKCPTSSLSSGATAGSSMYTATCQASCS
Chain of extracellular domain of the human β-klotho protein (human) (Q86Z14 1-996): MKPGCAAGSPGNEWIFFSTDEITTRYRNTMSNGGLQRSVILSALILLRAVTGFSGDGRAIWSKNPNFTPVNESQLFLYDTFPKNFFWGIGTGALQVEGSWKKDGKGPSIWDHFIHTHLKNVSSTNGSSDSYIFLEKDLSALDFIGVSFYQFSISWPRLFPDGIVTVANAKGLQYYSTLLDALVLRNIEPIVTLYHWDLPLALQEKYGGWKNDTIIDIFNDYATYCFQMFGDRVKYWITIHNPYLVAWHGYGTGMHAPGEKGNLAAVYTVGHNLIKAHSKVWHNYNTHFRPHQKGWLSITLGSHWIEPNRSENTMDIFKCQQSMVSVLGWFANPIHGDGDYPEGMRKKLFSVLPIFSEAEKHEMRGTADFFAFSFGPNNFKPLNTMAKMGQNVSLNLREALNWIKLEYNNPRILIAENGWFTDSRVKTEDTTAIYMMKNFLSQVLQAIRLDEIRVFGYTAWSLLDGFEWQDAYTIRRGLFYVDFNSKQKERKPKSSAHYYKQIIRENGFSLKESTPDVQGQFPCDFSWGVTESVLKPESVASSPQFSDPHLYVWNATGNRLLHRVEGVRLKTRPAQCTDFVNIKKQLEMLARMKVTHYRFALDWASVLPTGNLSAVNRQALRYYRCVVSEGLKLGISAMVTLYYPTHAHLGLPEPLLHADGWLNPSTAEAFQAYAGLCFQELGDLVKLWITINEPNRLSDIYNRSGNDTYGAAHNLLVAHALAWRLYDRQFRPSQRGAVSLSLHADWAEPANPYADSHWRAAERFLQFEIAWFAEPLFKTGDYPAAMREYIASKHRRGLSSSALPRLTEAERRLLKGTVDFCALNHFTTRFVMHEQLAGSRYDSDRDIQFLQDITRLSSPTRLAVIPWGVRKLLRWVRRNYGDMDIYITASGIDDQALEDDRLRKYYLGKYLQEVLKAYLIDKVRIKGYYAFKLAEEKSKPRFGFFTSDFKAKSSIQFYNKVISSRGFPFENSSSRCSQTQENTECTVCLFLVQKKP

Substance | EC50 of cAMP production in HEK293 cells expressing GLP-1R alone (Fig. 2b) [1] [nM] | EC50 of ERK1/2 phosphorylation in HEK293 cells expressing β-Klotho (Fig. 2a) [2] [nM] | Kd [3] [nM] | EC50 of cAMP in HEK293 cells expressing both GLP-1R and β-Klotho (Fig. 2c) [4] [nM] | EC50 of cAMP in HEK293 cells expressing both GLP-1R and β-Klotho (Fig. 2c) [5] [nM]
GLP-1-Fc-FGF21 (L98R, S167H, P171A, R175L) (Fc fusion) | 0.15 | 1.52 | 0.0924 |  | 
Fc-FGF21 (L98R, S167H, P171A) (Fc fusion) |  |  | 0.59 |  | 
GLP-1-Fc-FGF21 (L98R, S167H, P171A) (Fc fusion) |  |  | 0.24 |  | 
Dulaglutide (Fc fusion) | 0.06 |  |  | 0.21 | 
Fc-FGF21 (L98R, P171A) (Fc fusion) |  |  | 0.767 |  | 
Fc-FGF21 (L98R, S167H, P171A, R175L) (Fc fusion) |  | 1.13 | 0.316 |  | 305

From paper PMC7806870
